Measured values as given in article PMC8125178, “Fluorescence Correlation Spectroscopy Analysis of Effect of Molecular Crowding on Self-Assembly of β-Annulus Peptide into Artificial Viral Capsid” (International Journal of Molecular Sciences, 2021).

How the values were obtained:
BODIPY-β-annulus peptide [1] = molecular target: T1, BODIPY-β-annulus peptide (tomato bushy stunt virus, BODIPY-maleimide added by Michael addition to the thiol of the N-terminal Cys); assay: fluorescence correlation spectroscopy (FCS); 0.1 μM BODIPY-β-annulus peptide with 0~200 μM β-annulus peptide in 10 mM Tris-HCl buffer (pH 7.0), sonicated 10 min, incubated 30 min, 25 °C; ratio of the slow component fitted to the Hill equation; apparent Kd; conditions: both partners purified
T1 construct: also called BODIPY-labelled β-annulus peptide; fluorescent-labelled β-annulus peptide; source: synthetic peptide (solid-phase Fmoc chemistry; labelled with BODIPY-maleimide; purified by reversed-phase HPLC)
T1 peptide: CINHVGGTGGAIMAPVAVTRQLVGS

BODIPY-β-annulus peptide [2] = molecular target: T1, BODIPY-β-annulus peptide; assay: as above; conditions: both partners purified
BODIPY-β-annulus peptide [3] = molecular target: T1, BODIPY-β-annulus peptide; assay: fluorescence correlation spectroscopy (FCS); 0.1 μM BODIPY-β-annulus peptide with 0~200 μM β-annulus peptide in 10 mM Tris-HCl buffer (pH 7.0) with 10 wt% PEG2000, 25 °C; ratio of the slow component fitted to the Hill equation; conditions: both partners purified
BODIPY-β-annulus peptide [4] = molecular target: T1, BODIPY-β-annulus peptide; assay: fluorescence correlation spectroscopy (FCS); 0.1 μM BODIPY-β-annulus peptide with 0~200 μM β-annulus peptide in 10 mM Tris-HCl buffer (pH 7.0) with 20 wt% PEG2000, 25 °C; ratio of the slow component fitted to the Hill equation; conditions: both partners purified
BODIPY-β-annulus peptide [5] = molecular target: T1, BODIPY-β-annulus peptide; assay: fluorescence correlation spectroscopy (FCS); 0.1 μM BODIPY-β-annulus peptide with 0~200 μM β-annulus peptide in 10 mM Tris-HCl buffer (pH 7.0) with 15 wt% PEG2000, 25 °C; ratio of the slow component fitted to the Hill equation; conditions: both partners purified
[6] = molecular target: the molecule itself; assay: fluorescence correlation spectroscopy (FCS); 0.1 μM BODIPY-β-annulus peptide with 0~200 μM β-annulus peptide in 10 mM Tris-HCl buffer (pH 7.0) with 5 wt% PEG2000, 25 °C; ratio of the slow component fitted to the Hill equation
BODIPY-β-annulus peptide [7] = molecular target: T1, BODIPY-β-annulus peptide; assay: as above; conditions: both partners purified
BODIPY-β-annulus peptide [8] = molecular target: T1, BODIPY-β-annulus peptide; assay: as above; conditions: both partners purified

B1: 24-mer β-annulus peptide from tomato bushy stunt virus (peptide)
peptide: INHVGGTGGAIMAPVAVTRQLVGS
notes: also called unmodified β-annulus peptide; source: synthetic peptide (solid-phase Fmoc chemistry, purified by reversed-phase HPLC)
B1 was tested, and the “ratio of the slow component at 200 μM β-annulus” value (BODIPY-β-annulus peptide [1]) was 62%, the Kd (BODIPY-β-annulus peptide [2]) was 45.2 ± 10.6 µM and the Kd (BODIPY-β-annulus peptide [3]) was 6.69 ± 3.25 µM. The Kd (BODIPY-β-annulus peptide [4]) was 5.66 ± 2.15 µM, the Kd (BODIPY-β-annulus peptide [5]) was 4.24 ± 3.22 µM and the binding result [6] was “binds”. The “ratio of the slow component at 200 μM β-annulus” value (BODIPY-β-annulus peptide [7]) was 76% and the Kd (BODIPY-β-annulus peptide [8]) was 14.4 ± 7.81 µM.
